From US5969210, “Methods for the characterization of compounds which stimulate STF-1 expression in pancreatic islet cells” (Research Development Foundation) come the findings set out here.

This series addresses BETA-2/E47 heterodimer (reticulocyte lysate) (UniProt Q60430;P15923-2 Q60430:1-355,P15923-2:1-651). In words: EMSA; BETA-2 and E-47 cDNAs. The conditions noted are these: label: 32P. For orientation: Mobility shift assays separate free from complexed probe on a gel.

Sequence of BETA-2/E47 heterodimer (reticulocyte lysate) (Q60430 whole entry, chain 1 of 2): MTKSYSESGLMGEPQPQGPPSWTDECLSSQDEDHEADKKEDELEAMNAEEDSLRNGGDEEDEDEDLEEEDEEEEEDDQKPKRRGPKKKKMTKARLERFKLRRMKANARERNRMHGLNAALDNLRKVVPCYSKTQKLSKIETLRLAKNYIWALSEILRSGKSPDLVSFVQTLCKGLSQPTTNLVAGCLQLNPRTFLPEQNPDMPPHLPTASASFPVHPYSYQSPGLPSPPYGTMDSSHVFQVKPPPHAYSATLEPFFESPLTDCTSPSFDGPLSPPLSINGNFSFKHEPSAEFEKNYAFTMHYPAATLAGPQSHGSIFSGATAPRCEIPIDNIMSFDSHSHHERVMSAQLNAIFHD
Sequence of BETA-2/E47 heterodimer (reticulocyte lysate) (P15923 other isoform, or with tags, fused parts or gaps, chain 2 of 2): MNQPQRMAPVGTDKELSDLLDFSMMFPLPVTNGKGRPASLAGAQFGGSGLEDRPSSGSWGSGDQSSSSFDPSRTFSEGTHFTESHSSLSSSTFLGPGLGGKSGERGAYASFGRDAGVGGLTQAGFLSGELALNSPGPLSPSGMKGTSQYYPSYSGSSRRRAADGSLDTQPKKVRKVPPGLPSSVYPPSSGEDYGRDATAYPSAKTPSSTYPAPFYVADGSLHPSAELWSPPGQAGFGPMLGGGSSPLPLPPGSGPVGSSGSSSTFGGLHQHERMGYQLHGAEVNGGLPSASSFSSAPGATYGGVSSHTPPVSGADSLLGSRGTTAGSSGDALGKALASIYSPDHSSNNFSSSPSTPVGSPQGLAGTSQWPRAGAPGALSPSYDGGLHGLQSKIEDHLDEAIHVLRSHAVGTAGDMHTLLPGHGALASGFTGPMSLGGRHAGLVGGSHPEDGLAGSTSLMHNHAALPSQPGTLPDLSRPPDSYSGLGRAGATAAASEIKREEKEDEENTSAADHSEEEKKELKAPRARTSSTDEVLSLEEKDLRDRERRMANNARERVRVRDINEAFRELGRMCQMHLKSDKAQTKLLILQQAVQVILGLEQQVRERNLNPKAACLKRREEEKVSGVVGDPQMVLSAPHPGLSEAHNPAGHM

B1: B element WT (dsDNA)
DNA 1: TCAGTGACAGATGGAGTCCT
DNA 2: AGGACTCCATCTGTCACTGA
Consider B1, for which the binding result is “binds”.
